T1: Smc4 V721C, R1417C (SMC-kleisin ring circularization in vitro) (S. cerevisiae, UniProt Q12267 1-1418, V721C | R1417C)
T1 sequence: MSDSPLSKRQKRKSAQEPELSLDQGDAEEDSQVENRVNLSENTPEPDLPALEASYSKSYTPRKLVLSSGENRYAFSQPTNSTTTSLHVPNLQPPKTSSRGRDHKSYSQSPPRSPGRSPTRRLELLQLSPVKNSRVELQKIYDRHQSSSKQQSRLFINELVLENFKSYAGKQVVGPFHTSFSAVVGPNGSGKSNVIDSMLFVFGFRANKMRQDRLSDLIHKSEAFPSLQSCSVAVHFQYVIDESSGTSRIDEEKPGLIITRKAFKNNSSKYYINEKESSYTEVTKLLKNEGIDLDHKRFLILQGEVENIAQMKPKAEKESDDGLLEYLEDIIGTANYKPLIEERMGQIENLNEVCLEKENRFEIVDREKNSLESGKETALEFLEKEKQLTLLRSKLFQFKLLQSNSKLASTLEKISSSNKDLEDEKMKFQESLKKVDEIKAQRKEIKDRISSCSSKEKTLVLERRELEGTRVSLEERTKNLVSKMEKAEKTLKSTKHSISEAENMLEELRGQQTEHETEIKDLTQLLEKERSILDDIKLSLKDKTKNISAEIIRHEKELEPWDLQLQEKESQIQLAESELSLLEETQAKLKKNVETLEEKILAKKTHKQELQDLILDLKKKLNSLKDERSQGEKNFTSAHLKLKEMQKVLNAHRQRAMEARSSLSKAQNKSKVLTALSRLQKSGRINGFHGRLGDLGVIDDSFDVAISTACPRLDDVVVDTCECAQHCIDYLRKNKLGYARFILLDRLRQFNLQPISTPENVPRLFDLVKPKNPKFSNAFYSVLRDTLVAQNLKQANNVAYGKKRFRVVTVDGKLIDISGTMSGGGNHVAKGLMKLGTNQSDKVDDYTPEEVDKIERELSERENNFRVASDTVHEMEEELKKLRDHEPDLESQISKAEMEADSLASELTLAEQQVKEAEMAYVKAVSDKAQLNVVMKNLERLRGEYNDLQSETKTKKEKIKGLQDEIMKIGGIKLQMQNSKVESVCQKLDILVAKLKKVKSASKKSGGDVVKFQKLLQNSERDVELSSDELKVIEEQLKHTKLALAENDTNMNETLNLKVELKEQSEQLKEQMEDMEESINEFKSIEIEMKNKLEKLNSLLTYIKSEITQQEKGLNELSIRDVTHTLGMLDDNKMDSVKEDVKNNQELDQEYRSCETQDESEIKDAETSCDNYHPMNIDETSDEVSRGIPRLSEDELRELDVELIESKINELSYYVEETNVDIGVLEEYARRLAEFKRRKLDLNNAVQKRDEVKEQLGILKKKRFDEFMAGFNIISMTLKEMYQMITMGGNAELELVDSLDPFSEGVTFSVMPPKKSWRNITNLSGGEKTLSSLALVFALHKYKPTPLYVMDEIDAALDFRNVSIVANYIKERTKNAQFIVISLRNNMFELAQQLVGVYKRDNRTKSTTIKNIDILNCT

T2: Ycs4, HEAT-repeat subunit I of S. cerevisiae condensin (S. cerevisiae, UniProt Q06156 1-1176)
T2 sequence: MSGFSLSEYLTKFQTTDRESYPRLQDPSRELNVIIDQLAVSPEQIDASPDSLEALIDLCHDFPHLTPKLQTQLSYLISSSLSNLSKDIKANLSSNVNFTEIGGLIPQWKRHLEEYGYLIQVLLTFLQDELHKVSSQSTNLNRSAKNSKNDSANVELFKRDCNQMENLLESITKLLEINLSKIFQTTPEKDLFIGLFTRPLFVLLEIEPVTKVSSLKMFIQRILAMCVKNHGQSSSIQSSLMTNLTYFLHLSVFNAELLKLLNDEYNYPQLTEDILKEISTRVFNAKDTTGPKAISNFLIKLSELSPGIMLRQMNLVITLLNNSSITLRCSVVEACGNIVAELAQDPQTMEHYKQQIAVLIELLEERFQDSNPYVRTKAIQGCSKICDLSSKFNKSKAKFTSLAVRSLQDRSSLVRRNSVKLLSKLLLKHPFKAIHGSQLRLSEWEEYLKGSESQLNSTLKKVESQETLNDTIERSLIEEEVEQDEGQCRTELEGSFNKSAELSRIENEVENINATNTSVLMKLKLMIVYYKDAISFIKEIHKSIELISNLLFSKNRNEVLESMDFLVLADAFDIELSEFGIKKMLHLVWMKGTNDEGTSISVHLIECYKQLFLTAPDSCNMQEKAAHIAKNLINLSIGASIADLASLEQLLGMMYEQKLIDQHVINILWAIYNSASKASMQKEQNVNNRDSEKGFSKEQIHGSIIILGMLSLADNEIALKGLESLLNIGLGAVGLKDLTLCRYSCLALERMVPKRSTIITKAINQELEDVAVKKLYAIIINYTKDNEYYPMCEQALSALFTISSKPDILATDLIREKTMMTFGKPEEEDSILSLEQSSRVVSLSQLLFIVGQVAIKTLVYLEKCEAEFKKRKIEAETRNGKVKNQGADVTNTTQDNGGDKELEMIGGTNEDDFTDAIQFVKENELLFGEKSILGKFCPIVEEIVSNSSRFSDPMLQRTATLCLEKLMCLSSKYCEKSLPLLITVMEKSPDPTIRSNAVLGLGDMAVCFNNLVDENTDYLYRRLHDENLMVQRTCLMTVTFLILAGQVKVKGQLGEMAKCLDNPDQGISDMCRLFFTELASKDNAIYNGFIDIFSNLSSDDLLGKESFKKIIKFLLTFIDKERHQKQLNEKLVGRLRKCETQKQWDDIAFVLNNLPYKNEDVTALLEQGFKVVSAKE


Key:
[1] = target: T1, Smc4 V721C, R1417C (SMC-kleisin ring …); experiment: cross-linking
[2] = target: T2, Ycs4, HEAT-repeat subunit I of S. …; experiment: cryo-EM structure

Binder	binding result [1]	binding result [2]
Brn1 K709C, the Brn1 part of the Smc2–TEV–Brn1 fusion (SMC-kleisin ring circularization in vitro) (natural protein, S. cerevisiae) MTTQLRYENNDDDERVEYNLFTNRSTMMANFEEWIKMATDNKINSRNSWNFALIDYFYDLDVLKDGENNINFQKASATLDGCIKIYSSRVDSVTTETGKLLSGLAQRKTNGASNGDDSNGGNGEGLGGDSDEANIEIDPLTGMPISNDPDVNNTRRRVYNRVLETTLVEFETIKMKELDQELIIDPLFKKALVDFDEGGAKSLLLNTLNIDNTARVIFDASIKDTQNVGQGKLQRKEEELIERDSLVDDENEPSQSLISTRNDSTVNDSVISAPSMEDEILSLGMDFIKFDQIAVCEISGSIEQLRNVVEDINQAKDFIENVNNRFDNFLTEEELQAAVPDNAEDDSDGFDMGMQQELCYPDENHDNTSHDEQDDDNVNSTTGSIFEKDLMAYFDENLNRNWRGREHWKVRNFKKANLVNKESDLLEETRTTIGDTTDKNTTDDKSMDTKKKHKQKKVLEIDFFKTDDSFEDKVFASKGRTKIDMPIKNRKNDTHYLLPDDFHFSTDRITRLFIKPGQKMSLFSHRKHTRGDVSSGLFEKSTVSANHSNNDIPTIADEHFWADNYERKEQEEKEKEQSKEVGDVVGGALDNPFEDDMDGVDFNQAFEGTDDNEEASVKLDLQDDEDHKFPIRENKVTYSRVSKKVDVRRLKKNVWRSINNLIQEHDSRKNREQSSNDSETHTEDESTKELKFSDIIQGISKMYSDDTLCDISTSFCFICLLHLANEHGLQITHTENYNDLIVNYEDLATTQAAS	binds	
Smc2 K639C, the Smc2 part of the Smc2–TEV–Brn1 fusion (SMC-kleisin ring circularization in vitro) (natural protein, S. cerevisiae) MKVEELIIDGFKSYATRTVITDWDPQFNAITGLNGSGKSNILDAICFVLGIASMSTVRASSLQDLIYKRGQAGVTKASVTIVFDNTDKSNSPIGFTNSPQISVTRQVVLGGTSKYLINGHRAPQQSVLQLFQSVQLNINNPNFLIMQGKITKVLNMKPSEILSLIEEAAGTKMFEDRREKAERTMSKKETKLQENRTLLTEEIEPKLEKLRNEKRMFLEFQSTQTDLEKTERIVVSYEYYNIKHKHTSIRETLENGETRMKMLNEFVKKTSEEIDSLNEDVEEIKLQKEKELHKEGTISKLENKENGLLNEISRLKTSLSIKVENLNDTTEKSKALESEIASSSAKLIEKKSAYANTEKDYKMVQEQLSKQRDLYKRKEELVSTLTTGISSTGAADGGYNAQLAKAKTELNEVSLAIKKSSMKMELLKKELLTIEPKLKEATKDNELNVKHVKQCQETCDKLRARLVEYGFDPSRIKDLKQREDKLKSHYYQTCKNSEYLKRRVTNLEFNYTKPYPNFEASFVHGVVGQLFQIDNDNIRYATALQTCAGGRLFNVVVQDSQTATQLLERGRLRKRVTIIPLDKIYTRPISSQVLDLAKKIAPGKVELAINLIRFDESITKAMEFIFGNSLICEDPETACKITFHPKIRARSITLQGDVYDPEGTLSGGSRNTSESLLVDIQKYNQIQKQIETIQADLNHVTEELQTQYATSQKTKTIQSDLNLSLHKLDLAKRNLDANPSSQIIARNEEILRDIGECENEIKTKQMSLKKCQEEVSTIEKDMKEYDSDKGSKLNELKKELKLLAKELEEQESESERKYDLFQNLELETEQLSSELDSNKTLLHNHLKSIESLKLENSDLEGKIRGVEDDLVTVQTELNEEKKRLMDIDDELNELETLIKKKQDEKKSSELELQKLVHDLNKYKSNTNNMEKIIEDLRQKHEFLEDFDLVRNIVKQNEGIDLDTYRERSKQLNEKFQELRKKVNPNIMNMIENVEKKEAALKTMIKTIEKDKMKIQETISKLNEYKRETLVKTWEKVTLDFGNIFADLLPNSFAKLVPCEGKDVTQGLEVKVKLGNIWKESLIELSGGQRSLIALSLIMALLQFRPAPMYILDEVDAALDLSHTQNIGHLIKTRFKGSQFIVVSLKEGMFANANRVFRTRFQDGTSVVSIM	binds	
Smc2 E1113Q (Walker B mutant, EQ) of the S. cerevisiae condensin holo complex (natural protein) MKVEELIIDGFKSYATRTVITDWDPQFNAITGLNGSGKSNILDAICFVLGIASMSTVRASSLQDLIYKRGQAGVTKASVTIVFDNTDKSNSPIGFTNSPQISVTRQVVLGGTSKYLINGHRAPQQSVLQLFQSVQLNINNPNFLIMQGKITKVLNMKPSEILSLIEEAAGTKMFEDRREKAERTMSKKETKLQENRTLLTEEIEPKLEKLRNEKRMFLEFQSTQTDLEKTERIVVSYEYYNIKHKHTSIRETLENGETRMKMLNEFVKKTSEEIDSLNEDVEEIKLQKEKELHKEGTISKLENKENGLLNEISRLKTSLSIKVENLNDTTEKSKALESEIASSSAKLIEKKSAYANTEKDYKMVQEQLSKQRDLYKRKEELVSTLTTGISSTGAADGGYNAQLAKAKTELNEVSLAIKKSSMKMELLKKELLTIEPKLKEATKDNELNVKHVKQCQETCDKLRARLVEYGFDPSRIKDLKQREDKLKSHYYQTCKNSEYLKRRVTNLEFNYTKPYPNFEASFVHGVVGQLFQIDNDNIRYATALQTCAGGRLFNVVVQDSQTATQLLERGRLRKRVTIIPLDKIYTRPISSQVLDLAKKIAPGKVELAINLIRFDESITKAMEFIFGNSLICEDPETAKKITFHPKIRARSITLQGDVYDPEGTLSGGSRNTSESLLVDIQKYNQIQKQIETIQADLNHVTEELQTQYATSQKTKTIQSDLNLSLHKLDLAKRNLDANPSSQIIARNEEILRDIGECENEIKTKQMSLKKCQEEVSTIEKDMKEYDSDKGSKLNELKKELKLLAKELEEQESESERKYDLFQNLELETEQLSSELDSNKTLLHNHLKSIESLKLENSDLEGKIRGVEDDLVTVQTELNEEKKRLMDIDDELNELETLIKKKQDEKKSSELELQKLVHDLNKYKSNTNNMEKIIEDLRQKHEFLEDFDLVRNIVKQNEGIDLDTYRERSKQLNEKFQELRKKVNPNIMNMIENVEKKEAALKTMIKTIEKDKMKIQETISKLNEYKRETLVKTWEKVTLDFGNIFADLLPNSFAKLVPCEGKDVTQGLEVKVKLGNIWKESLIELSGGQRSLIALSLIMALLQFRPAPMYILDQVDAALDLSHTQNIGHLIKTRFKGSQFIVVSLKEGMFANANRVFRTRFQDGTSVVSIM		binds
